This note sets out measurements from article doi:10.1101/2024.12.23.630085, “Accurate sequence-to-affinity models for SH2 domains from multi-round peptide binding assays coupled with free-energy regression” (bioRxiv, 2025).

First the molecules themselves.
B1: CD3Z pY83 (peptide)
peptide: Ac-QGRREE[pY]DVLDKG-NH2
SMILES: CC(=O)N[C@@H](CCC(N)=O)C(=O)NCC(=O)N[C@@H](CCCNC(=N)N)C(=O)N[C@@H](CCCNC(=N)N)C(=O)N[C@@H](CCC(=O)O)C(=O)N[C@@H](CCC(=O)O)C(=O)N[C@@H](Cc1ccc(OP(=O)(O)O)cc1)C(=O)N[C@@H](CC(=O)O)C(=O)N[C@H](C(=O)N[C@@H](CC(C)C)C(=O)N[C@@H](CC(=O)O)C(=O)N[C@@H](CCCCN)C(=O)NCC(N)=O)C(C)C
notes: flank added to the 11-residue stretch (surmised: last residue of the library's constant GQSGQ); CD3 zeta chain, human, around pY83; flank added to the 11-residue stretch (surmised: first residue of the library's constant GGQSG); also called CD3ζ pY83; source: synthetic peptide (SynPeptide, China)
B2: CSF1R pY699 (peptide)
peptide: Ac-QEGGVD[pY]KNIHLG-NH2
SMILES: CC[C@H](C)[C@H](NC(=O)[C@H](CC(N)=O)NC(=O)[C@H](CCCCN)NC(=O)[C@H](Cc1ccc(OP(=O)(O)O)cc1)NC(=O)[C@H](CC(=O)O)NC(=O)[C@@H](NC(=O)CNC(=O)CNC(=O)[C@H](CCC(=O)O)NC(=O)[C@H](CCC(N)=O)NC(C)=O)C(C)C)C(=O)N[C@@H](Cc1c[nH]cn1)C(=O)N[C@@H](CC(C)C)C(=O)NCC(N)=O
notes: flank added to the 11-residue stretch (surmised: last residue of the library's constant GQSGQ); CSF1R, human, around pY699; flank added to the 11-residue stretch (surmised: first residue of the library's constant GGQSG); also called CSFR pY699; source: synthetic peptide (SynPeptide, China)
B3: FITC-Ahx-GDG-pY-EEISPLLL-NH2 (peptide)
peptide: {FITC-Ahx}-GDG[pY]EEISPLLL-NH2
SMILES: CC[C@H](C)[C@H](NC(=O)[C@H](CCC(=O)O)NC(=O)[C@H](CCC(=O)O)NC(=O)[C@H](Cc1ccc(OP(=O)(O)O)cc1)NC(=O)CNC(=O)[C@H](CC(=O)O)NC(=O)CNC(=O)CCCCCNC(=S)Nc1ccc2c(c1)C(=O)OC21c2ccc(O)cc2Oc2cc(O)ccc21)C(=O)N[C@@H](CO)C(=O)N1CCC[C@H]1C(=O)N[C@@H](CC(C)C)C(=O)N[C@@H](CC(C)C)C(=O)N[C@@H](CC(C)C)C(N)=O
notes: fluorescent probe, c-Src SH2 consensus peptide; also called c-Src SH2 consensus; source: synthetic peptide (SynPeptide, China)
B4: CLIP2 pY972 (peptide)
peptide: Ac-QSDQRR[pY]SLIDRG-NH2
SMILES: CC[C@H](C)[C@H](NC(=O)[C@H](CC(C)C)NC(=O)[C@H](CO)NC(=O)[C@H](Cc1ccc(OP(=O)(O)O)cc1)NC(=O)[C@H](CCCNC(=N)N)NC(=O)[C@H](CCCNC(=N)N)NC(=O)[C@H](CCC(N)=O)NC(=O)[C@H](CC(=O)O)NC(=O)[C@H](CO)NC(=O)[C@H](CCC(N)=O)NC(C)=O)C(=O)N[C@@H](CC(=O)O)C(=O)N[C@@H](CCCNC(=N)N)C(=O)NCC(N)=O
notes: flank added to the 11-residue stretch (surmised: last residue of the library's constant GQSGQ); CLIP2, human, around pY972; flank added to the 11-residue stretch (surmised: first residue of the library's constant GGQSG); source: synthetic peptide (SynPeptide, China)
B5: CLIP2 pY972 R977P (peptide)
peptide: Ac-QSDQRR[pY]SLIDPG-NH2
SMILES: CC[C@H](C)[C@H](NC(=O)[C@H](CC(C)C)NC(=O)[C@H](CO)NC(=O)[C@H](Cc1ccc(OP(=O)(O)O)cc1)NC(=O)[C@H](CCCNC(=N)N)NC(=O)[C@H](CCCNC(=N)N)NC(=O)[C@H](CCC(N)=O)NC(=O)[C@H](CC(=O)O)NC(=O)[C@H](CO)NC(=O)[C@H](CCC(N)=O)NC(C)=O)C(=O)N[C@@H](CC(=O)O)C(=O)N1CCC[C@H]1C(=O)NCC(N)=O
notes: flank added to the 11-residue stretch (surmised: last residue of the library's constant GQSGQ); CLIP2, human, around pY972, natural variant R977P; flank added to the 11-residue stretch (surmised: first residue of the library's constant GGQSG); source: synthetic peptide (SynPeptide, China)
B6: ACTA1 pY171 (peptide)
peptide: Ac-QPIFEG[pY]ALPHAG-NH2
SMILES: CC[C@H](C)[C@H](NC(=O)[C@@H]1CCCN1C(=O)[C@H](CCC(N)=O)NC(C)=O)C(=O)N[C@@H](Cc1ccccc1)C(=O)N[C@@H](CCC(=O)O)C(=O)NCC(=O)N[C@@H](Cc1ccc(OP(=O)(O)O)cc1)C(=O)N[C@@H](C)C(=O)N[C@@H](CC(C)C)C(=O)N1CCC[C@H]1C(=O)N[C@@H](Cc1c[nH]cn1)C(=O)N[C@@H](C)C(=O)NCC(N)=O
notes: flank added to the 11-residue stretch (surmised: last residue of the library's constant GQSGQ); ACTA1, human, around pY171; flank added to the 11-residue stretch (surmised: first residue of the library's constant GGQSG); also called ACTA1 pTyr Y171; source: synthetic peptide (SynPeptide, China)
B7: Syn-F-1 (synthetic) (peptide)
peptide: Ac-QLHVHP[pY]EKVEDG-NH2
SMILES: CC(=O)N[C@@H](CCC(N)=O)C(=O)N[C@@H](CC(C)C)C(=O)N[C@@H](Cc1c[nH]cn1)C(=O)N[C@H](C(=O)N[C@@H](Cc1c[nH]cn1)C(=O)N1CCC[C@H]1C(=O)N[C@@H](Cc1ccc(OP(=O)(O)O)cc1)C(=O)N[C@@H](CCC(=O)O)C(=O)N[C@@H](CCCCN)C(=O)N[C@H](C(=O)N[C@@H](CCC(=O)O)C(=O)N[C@@H](CC(=O)O)C(=O)NCC(N)=O)C(C)C)C(C)C
notes: source: synthetic peptide (SynPeptide, China)
B8: ACTB pY240 (peptide)
peptide: Ac-QSLEKS[pY]ELPDGG-NH2
SMILES: CC(=O)N[C@@H](CCC(N)=O)C(=O)N[C@@H](CO)C(=O)N[C@@H](CC(C)C)C(=O)N[C@@H](CCC(=O)O)C(=O)N[C@@H](CCCCN)C(=O)N[C@@H](CO)C(=O)N[C@@H](Cc1ccc(OP(=O)(O)O)cc1)C(=O)N[C@@H](CCC(=O)O)C(=O)N[C@@H](CC(C)C)C(=O)N1CCC[C@H]1C(=O)N[C@@H](CC(=O)O)C(=O)NCC(=O)NCC(N)=O
notes: flank added to the 11-residue stretch (surmised: last residue of the library's constant GQSGQ); ACTB, human, around pY240; flank added to the 11-residue stretch (surmised: first residue of the library's constant GGQSG); source: synthetic peptide (SynPeptide, China)
B9: ACTB pY240 P243L (peptide)
peptide: Ac-QSLEKS[pY]ELLDGG-NH2
SMILES: CC(=O)N[C@@H](CCC(N)=O)C(=O)N[C@@H](CO)C(=O)N[C@@H](CC(C)C)C(=O)N[C@@H](CCC(=O)O)C(=O)N[C@@H](CCCCN)C(=O)N[C@@H](CO)C(=O)N[C@@H](Cc1ccc(OP(=O)(O)O)cc1)C(=O)N[C@@H](CCC(=O)O)C(=O)N[C@@H](CC(C)C)C(=O)N[C@@H](CC(C)C)C(=O)N[C@@H](CC(=O)O)C(=O)NCC(=O)NCC(N)=O
notes: flank added to the 11-residue stretch (surmised: last residue of the library's constant GQSGQ); ACTB, human, around pY240, natural variant P243L; flank added to the 11-residue stretch (surmised: first residue of the library's constant GGQSG); source: synthetic peptide (SynPeptide, China)
B10: Syn-F-2 (synthetic) (peptide)
peptide: Ac-QMEKHV[pY]ESVTQG-NH2
SMILES: CSCC[C@H](NC(=O)[C@H](CCC(N)=O)NC(C)=O)C(=O)N[C@@H](CCC(=O)O)C(=O)N[C@@H](CCCCN)C(=O)N[C@@H](Cc1c[nH]cn1)C(=O)N[C@H](C(=O)N[C@@H](Cc1ccc(OP(=O)(O)O)cc1)C(=O)N[C@@H](CCC(=O)O)C(=O)N[C@@H](CO)C(=O)N[C@H](C(=O)N[C@H](C(=O)N[C@@H](CCC(N)=O)C(=O)NCC(N)=O)[C@@H](C)O)C(C)C)C(C)C
notes: as for B7
B11: CBS pY308 (peptide)
peptide: Ac-QVEGIG[pY]DFIPTG-NH2
SMILES: CC[C@H](C)[C@H](NC(=O)CNC(=O)[C@H](CCC(=O)O)NC(=O)[C@@H](NC(=O)[C@H](CCC(N)=O)NC(C)=O)C(C)C)C(=O)NCC(=O)N[C@@H](Cc1ccc(OP(=O)(O)O)cc1)C(=O)N[C@@H](CC(=O)O)C(=O)N[C@@H](Cc1ccccc1)C(=O)N[C@H](C(=O)N1CCC[C@H]1C(=O)N[C@H](C(=O)NCC(N)=O)[C@@H](C)O)[C@@H](C)CC
notes: flank added to the 11-residue stretch (surmised: last residue of the library's constant GQSGQ); CBS, human, around pY308; flank added to the 11-residue stretch (surmised: first residue of the library's constant GGQSG); source: synthetic peptide (SynPeptide, China)
B12: CBS pY308 G307S (peptide)
peptide: Ac-QVEGIS[pY]DFIPTG-NH2
SMILES: CC[C@H](C)[C@H](NC(=O)CNC(=O)[C@H](CCC(=O)O)NC(=O)[C@@H](NC(=O)[C@H](CCC(N)=O)NC(C)=O)C(C)C)C(=O)N[C@@H](CO)C(=O)N[C@@H](Cc1ccc(OP(=O)(O)O)cc1)C(=O)N[C@@H](CC(=O)O)C(=O)N[C@@H](Cc1ccccc1)C(=O)N[C@H](C(=O)N1CCC[C@H]1C(=O)N[C@H](C(=O)NCC(N)=O)[C@@H](C)O)[C@@H](C)CC
notes: flank added to the 11-residue stretch (surmised: last residue of the library's constant GQSGQ); CBS, human, around pY308, natural variant G307S; flank added to the 11-residue stretch (surmised: first residue of the library's constant GGQSG); source: synthetic peptide (SynPeptide, China)

Non-standard residues stand in square brackets, D forms with d. *: point of attachment. FITC = O=C1OC2(c3ccc(O)cc3Oc3cc(O)ccc32)c2ccc(NC(=S)*)cc21; pY = N[C@@H](Cc1ccc(OP(=O)(O)O)cc1)C(=O)O; Ahx = NCCCCCC(=O)O

T1 sequence (P07948 121-228): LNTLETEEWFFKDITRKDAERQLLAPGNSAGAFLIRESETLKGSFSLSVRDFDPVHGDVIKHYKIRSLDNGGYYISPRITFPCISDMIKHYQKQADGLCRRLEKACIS

The first assay addresses T1, Lyn SH2 domain (121-228) (human, UniProt P07948 121-228, biotin (on the AviTag)).
T1 construct: source: E. coli C43(DE3) with BirA helper plasmid, purified (HisTrap, anion exchange, Ulp1 cleavage, SEC); not shown: His6-SUMO, N-terminal, cleaved; AviTag, C-terminal, kept
As to the kind of experiment: fluorescence polarisation; competition mode; unlabelled phosphopeptide against 30 nM FITC-Ahx-GDG-pY-EEISPLLL-NH2 and 106.5 nM Lyn SH2 (Table S3). The conditions noted are these: both partners purified. In general terms: Polarisation of emitted light reports the rotation of a fluorescent probe.
In general, Kd refers to the equilibrium constant for the complex coming apart. Read a high Kd as lower affinity. With B1, binding was put at a Kd of 2950 nM.

Molecule B2 registered a dissociation constant (Kd) of 22800 nM.

Regarding B3, the binding result is reported as “binds”.

The target in another assay is T2, Fyn SH2 domain (142-248) (human, UniProt P06241 142-248, biotin (on the AviTag)).
T2 construct: SH2 domain of human Fyn kinase, residues 142-248; source: E. coli C43(DE3) with BirA helper plasmid, purified (HisTrap, anion exchange, Ulp1 cleavage, SEC); not shown: His6-SUMO, N-terminal, cleaved; AviTag, C-terminal, kept
T2 sequence (P06241 142-248): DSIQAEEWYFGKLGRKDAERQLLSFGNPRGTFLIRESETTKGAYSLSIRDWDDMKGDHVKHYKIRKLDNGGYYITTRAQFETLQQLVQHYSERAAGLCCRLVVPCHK
The experiment in a line: fluorescence polarisation; competition mode; unlabelled phosphopeptide against 0.4 nM FITC-Ahx-GDG-pY-EEISPLLL-NH2 and 4.125 nM Fyn SH2, as printed (Tables S3 and S5). The conditions noted are these: both partners purified.
For B4, the Kd is 78.5 nM.

On to B5, for which the Kd amounted to 27 nM.

Regarding B6, the Kd was 47.3 nM. Against the preceding molecule, the Kd is about 1.8-fold higher.

Molecule B7 yielded a Kd of 30.2 nM. This Kd is about 1.6-fold lower than that of the molecule before.

In the case of B8, the affinity, expressed as Kd, was 159 nM.

B9 came in with a Kd of 141 nM.

B10 yielded a Kd of 18.3 nM.

Turning to B3, the binding result is given as “binds”.

Molecule B11 came in with a Kd of 126 nM.

As for B12, binding was put at a Kd of 185 nM.
